This passage reports protein production results from a protein production outcome set (Wang et al. 2014).

The nature of this data set: label from the status in PepcDB records.

As to “STTTTTKKPHVLVIPFPQSGHMVPHLDLTHQILLRGATVTVLVTPKNSSYLDALRSLHSPEHFKTLILPFPSHPCIPSGVESLQQLPLEAIVHMFDALSRLHDPLVDFLSRQPPSDLPDAILGSSFLSPWINKVADAFSIKSISFLPINAHSISVMWAQEDRSFFNDLETATTESYGLVINSFYDLEPEFVETVKTRFLNHHRIWTVGPLLPFKAGVDRGGQSSIPPAKVSAWLDSCPEDNSVVYVGFGSQIRLTAEQTAALAAALEKSSVRFIWAVRDAAKKVNSSDNSVEEDVIPAGFEERVKEKGLVIRGWAPQTMILEHRAVGSYLTHLGWGSVLEGMVGGVMLLAWPMQADHFFNTTLIVDKLRAAVRVGENRDSVPDSDKLARILAESAREDLPERVTLMKLREKAMEAIKEGGSSYKNLDELVAEMCL”, the protein production result is recorded as “failed”. In the case of “SVATQHLFARQKNTQLTLHVAHSFCSQWLMPRLADFHRQHPDVVVKISTTANTVPNASAIADVEIINGYGDWQSEQAVQLTQEN” it was “failed”; in that of “SVDDDLYFIPKKKAEKKEEVKQEVKVVVPQKQNTTTVYAAPGSTVVVKDVKGKVRDVDEYNRRYTSRDNNFSMENDTLYIEEKPLNERGEWVNGFEGSQDDYEYAMRIVRFRNPRYAIPVSSPLYWDVVYGLPSWDWNVYDDGLYAYVFPTYTNRLWWDWRWNYPYGASWGFSWGWSSPWYYNSWYYPGYWGGGYWGGYWGYHHHHHHHYYPHYSGHGWGGGYWGGGHGWYGSSRRNPGIHAGRYTNSYGSSRPSRNNYVNSYDRNSRNSYVGNSRQNVRNSANSYRTATRNGSSSGRVVSGSDGVNSVRPNRSAIRTRTGATLSPSQAAGVRPGNSYSRPTEGRGSSYTRPSS”, “failed”. The result for “SVFPQQTGQLAELQPQDRAGARASWMPMFQRRRRRDTHFPICIFCCGCCHRSKCGMCCKT” reads “failed”; that for “SVPKRQRIRKLQIRNIPPHLQWEVLDSLLVQYGVVESCEQVNTDSETAVVNVTYSSKDQARQALDKLNGFQLENFTLKVAYIPDEMAAQ”, “not failed”. The result for “SWNQAPKLHYCLDYDCQKAELFVTRLEAVTSNHDGGCDCYVQGSVANRTGSVEAQTALKKRQLHTTWEEGLVLPLAEEELPTATLTLTLRTCDRFSRHSVAGELRLGLDGTSVPLGAAQWGELKT” reads “not failed”; that for “SWSDLFRKCTTDEEQEMLQFLIDNKDSEILRAFVSERSILLHEEYLKWESYMTRRAKFHRLAADFAMFLSILTSLIVIFCLVYSMYQLFKTPDEHSAYDPSTRPKPKTQEVKTLKIRTE”, “not failed”; that for “SYLPKHESVTLKNGLQVVSVPLENKTGVIEVDVLYKVGSRNETMGKSGIAHMLEHLNFKSTKNLKAGEFDKIVKRFGGVSNASTSFDITRYFIKTSQANLDKSLELFAETMGSLNLKEDEFLPERQVVAEERRWRTDNSPIGMLYFRFFNTAYVYHPYHWTPIGFMDDIQNWTLKDIKKFHSLYYQPKNAIVLVVGDVNSQKVFELSKKHFESLKN”, “failed”. “SYNYNIKRRIAEKAAELVQDNDTIMIESGSTCALLAEVLCQTKRNIKVITNSCFIANYIRQYSSCQIILLGGYYQPNSEVTVGPLLKEMISLFHVNRVFVGTDGFNKDLGFMGKDMMRSEGVRYMADAAEEVVILTDSSKFSKTSLVHQLSLADVNRVITDQALDKQTQELLSASGLVLDFVS”: the protein production result is given as “failed”. In the case of “SYVQDYRSPFIASVSDQHGVVYITENKNKTVVIPCLGSISNLNVSLCARYPEKRFVPDGNRISWDSKKGFTIPSYMISYAGMVFCEAKINDESYQSIMYIVVVVGYRIYDVVLSPSHGIELSVGEKLVLNCTARTELNVGIDFNWEYPSSKHQHKKLVNRDLKTQSGSEMKKFLSTLTIDGVTRSDQGLYTCAASSGLMTKKNSTFVRVHEKPFVAFGSG” it was “not failed”; in that of “TAMRVSPHHPAPTPNPRASLNHSTAFNPQPQSQMQDTRQIQPSPPWSYDQSYQYLGSIASPSVHPATPISPGRASGMTTLSAELSSRLSTAPDLTAFSDPRQFPALPSISDP”, “failed”. In the case of “TDSTGIDLHEFLVNTLKKNPRDRMMLLKLEQEILEFINDNNNQFKKFPQMTSYHRMLLHRVAAYFGMDHNVDQTGKAVIINKTSNTRIPEQRFSEHIKDEKNTEFQQRFIL” it was “not failed”. Regarding “TEKTALHLRARRNFRDFRGVSRRTGEEWLVTVQDTEAHVPDVHEEVLGVVPITTLGPHNYCVILDPVGPDGKNQLGQKRVVKGEKSFFLQPGEQLEQGIQDVYVLSEQQGLLLRALQPLEEGEDEEKVSHQAGDHWLIRGPLEYVPSAKVEVVEERQAIPLDENEGIYVQDVKTGKVRAVIGSTYMLTQDEVLWEKELPPGVEELLNKGQDPLADRGEKDTAKSLQPLAPRNKTRVVSYRVPHNAAVQVYDYREKRARVVFGPELVSLGPEEQFTVLSLSAGRPKRPHARRALCLLLGPDFFTDVITIETADHARLQLQLAYNWHFEVNDRKDPQETAKLFSVPDFVGDACKAIASRVRGAVASVTFDDFHKNSARIIRTAVFGFETSEAKGPDGMALPRPRDQAVFPQNGLVVSSVDVQSVEPVDQRTRDALQRSVQLAIEITTNSQEAAAKHEAQRLEQEARGRLERQKILDQS”, the protein production result is listed as “failed”. The result for “TIADVQSSRDLRNLPINQVGIKDLRFPITLQTAEGIQSTIARLTMTVYLPAEQKGTHMSRFVALMEQHAEALDFAQLRKLTTEMVALLDSRAGKISVSFPFFRKKTAPVSGIRSLLDYDVCLTGEIKDGAYGHSMKVMIPVTSLCPCSKEISQYGAHNQRSHVTVSLTADAEVGIEEVIDYVEAQASCQLYGLLKRPDEKYVTEKAYENPKFVEDMVRDVATSLIADKRIKSFVVESENFESIHNHSAYAYIAYP” reads “not failed”; that for “TKDFNLNVSATYNFNKNNIDELDGGKDIYYNSGWGSSAQHPSYDYVLSEGKPVGVIRGFKSAGFYTVDDFDYVDGVYKLKAGIPDISTAATGTYRRPSELQVADGQIAFPGALKLQDVDKSGIVDLDDVVDLGEVQAKHTGGFSLNGNYKNIDFGANFTYQIGGKVYNVATMSQLSGGKETGLGLNKYKDLAGAFQLYDIQNGNLVPVIEPTALKQLNANAKYALPYYEDAPILSDYVEDASYLRLNTLTVGYTLPKAWTTKAYMQKVRIYVTGGNLFCITGYSGLDPEVNSDPDKAKSYPTLGLDWGAYMRARTFTVGLNVEF”, “failed”; that for “TLHKERRIGRLSVLLLLNEAEESTQVEELERDGWKVCLGKVGSMDAHKVVAAIETASKKSGVIQSEGYRESHALYHATMEALHGVTRGEMLLGSLLRTVGLRFAVLRGNPYESEAEGDWIAVSLYGTIGAPIKGLEHETFGVGINHI”, “not failed”. For the sequence “TLRKARVKGLFLLSSGLQFSQSDHHPGGIPLAVIRHMSRQLKRNRTDTLTSFYEQMFSESEKSHGLDQAFLQTLEAGDPFYHWQNESLIAGLDYLANVQLLQGWPTVSVPITWIHGSDDTICPSPASGLFSPSKRLIIVEGAGHVPFYTQDSVVINAWEELLGN”, the protein production entry is listed as “failed”. In the case of “TPEHRAVAREVAAETFVLLKNENHLLPLEEKGKIALIGPMADARNNMCGMWSMTCTPSRHGTLLEGIRSAVGDKAEILYAKGSNVYYDAEMEKGAVGIRPLERGNDQQLLAEALRTAARADVIVAAVGECAEMSGESPSRTNLEIPDAQQDLLKALVKTGKPVVLLLFTGRPLILNWESEHIPSILNVWFGGSETGDAVADVLFGKAVPCGKLTTTFPRSVGQLPLFYNHLNTGRPDPDNRVFNRYASNYLDESNEPLYPFGYGLSYTDF” it was “not failed”. In the case of “TQKKVEVETLEQKIIRADRELAELLEIDEGDEVNYRVVYLRANGEIYAKAISFTPLKRLENSFREDLMRADIPIGKIMRKHNIEARREIRWSRVEEADLALAKELGIADRRVISRNYNIIHRGKVLINITEFFPMERFR” it was “failed”. The result for “TSAGWVSVAIGPLPLRCWWSPPAGCRRDIDNISIENRAYIVLPEVFGVNAWVRSVADRLAAQGIPALAVPLFARTAPELELAYESCDLAQGRAHKDATTASQILSDVSAAVAWLQQRCPNAAIDLAGFCFGGHAALLAATLPQIRHSFDFYGAGVSRMRPGGGAPSLELLPQVSGQLTCVCGSADPLIPEEDRTTIRSALAAADPSGKRMSYIEIDGVDHGFMCEARGSFDADASALGWQLMLA” reads “failed”; that for “TSLEEITKAIMADSQNKVFTEKNIEPLFAAPKTARINIVGQAPGIKAQESRLYWNDKSGDRLREWMGVDYDTFYHSGYFAVIPMDFYYPGKGKSGDLPPRKGFAQKWHQPILDLLPDIQLTILIGNYAQKYYLHQKSSVKLTDTVAHYKKYLPDYFPLVHPSPRNQIWMSRHPWFEAQVVPDLKKIIQQII”, “not failed”; that for “TTLASIGKDIIEDADGIAMPHQWLEGNLPVSAKCTVCDKTCGSVLRLQDWRCLWCKAMVHTSCKESLLTKC”, “not failed”. “TVNVTTKKTPPSQPPGNVVWNATDTKVLLNWEQVKAMENESEVTGYKVFYRTSSQNNVQVLNTNKTSAELVLPIKEDYIIEVKATTDGGDGTSSEQIRIPRITS”: the protein production result was “not failed”. In the case of “TWILTADSPSLLGTVDVVTRYLFEQRCYVTEHHSFDDRLAQRFFIRVEFRAGDGFDEASFRAGLAERVAPFGMRTELTAPGYRSQVAIMVSKADHCLNDLLYRQRIGQLPMDVVAVISNHPDLEPLARWHGIPYHHFPLDPNDKPAQEARVWQVLEESGAELVILARYMQVLSPELCRRLDGWAINIHHSLLPGFKGAKPYHQAYQKGVKLVGATAHYINNDLDEGPIIAQGVETVDHAHYPEDLIAKGRDIECLTLARAVGYHIERRVFLNANRTVVL” it was “failed”; in that of “TWTDIRYREEGNAGFLSFSFPGGAMSTAQCRRLLDAYRDACTRPTSVLVLGGERDFFSNGIHLNVIEAADDPGAESWANINAIDDLVEAVLTTTDR”, “failed”. In the case of “VATLNESIEAGLEPGAVALILEAFPIEDRVRLWRALPLELHIDVLTEMRADVRFSIINALSEVELKLTLAKLDNLSLIEWADSLPESIINEALALIEKDELELYDQANEYEDDELGRWAERKIITLPFNITVGTAKQLMERYSYDTPQQVYLINRNKQFRGAVNYYEILRSDSGVRLKTLEIETVTVLDSKMTLPEAVEALEHSALPALPVTDADQTLIGEVDWQFALSTQREIYEARLMAGTGMDEGDDLFAPVLKSSQKRGV” it was “not failed”; in that of “VAVINSAQDAPSEAPTEVGVKVLSSSEISVHWEHVLEKIVESYQIRYWAAHDKEEAANRVQVTSQEYSARLENLLPDTQYFIEVGACNSAGCGPPSDMIEAFTKKA”, “not failed”.

Take “VDAGRGAEHDEAVTSDDSASVEVPRRATPADAATVAQMLHDFNTEFGAPTPGTDELASRLSHLLAGEDVVVLLAGEPPTGLAVLSFRPNVWYPGPVAILDELYVRPGRRGHRLGSALLAASCGLVRSRGGALLEINVDGEDTDARRFYEARGFTNTEPNGTEPMLYYYREL”: the protein production result is reported as “not failed”. In the case of “VDKCDEPLSILVRNNKGRSSTYEVRLTQTVAHLKQQVSGLEGVQDDLFWLTFEGKPLEDQLPLGEYGLKPLSTVFMNLRLRGGGTEP” it was “failed”; in that of “VDKKAPQISFQARLLRDNVTIFLDFSGRGLFQRGYREHSGAAPLKENLAAALIIRSGWLNDTSKPLVDPMCGSGTILIEAVSMAAKQAPAINRQSWGFEAWLSHDNAVWQKQLTLAIDSSEENMSNLKVKVFGIDIDERVLRTAQQNARNAQLHQYIEFTCKNTNDMDNTFGQPGTILFNPPYGERIGELPELVENFVLFGQKLKMQFKDWRIAILTANVDLLSMLKLSSFKRYKFKNGPLDCQLALYNLDAKQG”, “failed”; in that of “VEPVPDTHLRGITCLDHENEKVNMYCVSDDQLICALCKLVGRHRDHQVASLNDRFEKLKQTLEMNLTNLVK”, “not failed”.
